Experimental data from US20160264649A1.

Key:
Assay in all cases: cell-based or functional assay
[1] = molecular target: HIV-1 92RW008 Env (HIV-1)
[2] = molecular target: HIV-1 92TH021 Env (HIV-1)
[3] = molecular target: HIV-1 92UG031 Env (HIV-1)
[4] = molecular target: HIV-1 92UG037 Env (HIV-1)
[5] = molecular target: HIV-1 92WR009 Env (HIV-1)
[6] = molecular target: HIV-1 92WR020 Env (HIV-1)
[7] = molecular target: HIV-1 92WR021 Env (HIV-1)
[8] = molecular target: HIV-1 92WR024 Env (HIV-1)
[9] = molecular target: HIV-1 92WR026 Env (HIV-1)
[10] = molecular target: HIV-1 93UG077 Env (HIV-1)
[11] = molecular target: HIV-1 93WR029 Env (HIV-1)
[12] = molecular target: HIV-1 94KE105 Env (HIV-1)
[13] = molecular target: HIV-1 94UG103 Env (HIV-1)
HIV-1 CMU02 Env (HIV-1) = molecular target: HIV-1 CMU02 Env (HIV-1)
[14] = molecular target: HIV-1 Env of isolate MG RM-C-019 (subtype C) (HIV-1)
[15] = molecular target: HIV-1 Env of isolate MG RM-C-020 (subtype C) (HIV-1)
[16] = molecular target: HIV-1 Env of isolate MG RM-C-022 (subtype C) (HIV-1)
[17] = molecular target: HIV-1 Env of isolate MG RM-C-023 (subtype C) (HIV-1)
[18] = molecular target: HIV-1 Env of isolate MG RM-C-024 (subtype C) (HIV-1)
[19] = molecular target: HIV-1 Env of isolate MG RM-C-025 (subtype C) (HIV-1)
[20] = molecular target: HIV-1 Env of isolate MG RM-C-026 (subtype C) (HIV-1)
[21] = molecular target: HIV-1 Env of isolate MG RM-C-027 (subtype C) (HIV-1)
[22] = molecular target: HIV-1 Env of isolate MG RM-C-028 (subtype C) (HIV-1)
[23] = molecular target: HIV-1 MGRM-A-001 Env (HIV-1)
[24] = molecular target: HIV-1 MGRM-A-002 Env (HIV-1)
[25] = molecular target: HIV-1 MGRM-A-003 Env (HIV-1)
[26] = molecular target: HIV-1 MGRM-A-004 Env (HIV-1)
[27] = molecular target: HIV-1 MGRM-A-005 Env (HIV-1)
[28] = molecular target: HIV-1 MGRM-A-006 Env (HIV-1)
[29] = molecular target: HIV-1 MGRM-A-007 Env (HIV-1)
[30] = molecular target: HIV-1 MGRM-A-008 Env (HIV-1)
[31] = molecular target: HIV-1 MGRM-A-009 Env (HIV-1)
[32] = molecular target: HIV-1 MGRM-A-010 Env (HIV-1)
[33] = molecular target: HIV-1 MGRM-A-011 Env (HIV-1)
[34] = molecular target: HIV-1 MGRM-A-012 Env (HIV-1)
[35] = molecular target: HIV-1 MGRM-A-013 Env (HIV-1)
[36] = molecular target: HIV-1 MGRM-A-014 Env (HIV-1)
[37] = molecular target: HIV-1 MGRM-AE-001 Env (HIV-1)
[38] = molecular target: HIV-1 MGRM-AE-002 Env (HIV-1)
[39] = molecular target: HIV-1 MGRM-AE-003 Env (HIV-1)
[40] = molecular target: HIV-1 MGRM-AE-004 Env (HIV-1)
[41] = molecular target: HIV-1 MGRM-AE-005 Env (HIV-1)
[42] = molecular target: HIV-1 MGRM-AE-006 Env (HIV-1)
[43] = molecular target: HIV-1 MGRM-AE-007 Env (HIV-1)
[44] = molecular target: HIV-1 MGRM-AE-008 Env (HIV-1)
[45] = molecular target: HIV-1 MGRM-AG-001 Env (HIV-1)
[46] = molecular target: HIV-1 MGRM-AG-002 Env (HIV-1)
[47] = molecular target: HIV-1 MGRM-AG-003 Env (HIV-1)
[48] = molecular target: HIV-1 MGRM-AG-005 Env (HIV-1)
[49] = molecular target: HIV-1 MGRM-AG-006 Env (HIV-1)
[50] = molecular target: HIV-1 MGRM-AG-008 Env (HIV-1)
[51] = molecular target: HIV-1 MGRM-AG-009 Env (HIV-1)
[52] = molecular target: HIV-1 MGRM-AG-011 Env (HIV-1)
[53] = molecular target: HIV-1 MGRM-AG-012 Env (HIV-1)
[54] = molecular target: HIV-1 MGRM-AG-013 Env (HIV-1)
HIV-1 VLGCA1 Env (HIV-1) = molecular target: HIV-1 VLGCA1 Env (HIV-1)

5329_C19 (PGT-136) (antibody), sequence (VH): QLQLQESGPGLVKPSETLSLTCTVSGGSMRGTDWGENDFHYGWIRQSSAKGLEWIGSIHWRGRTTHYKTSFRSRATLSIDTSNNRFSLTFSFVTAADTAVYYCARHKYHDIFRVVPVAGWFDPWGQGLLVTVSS
5329_C19 (PGT-136) (antibody), sequence (VL): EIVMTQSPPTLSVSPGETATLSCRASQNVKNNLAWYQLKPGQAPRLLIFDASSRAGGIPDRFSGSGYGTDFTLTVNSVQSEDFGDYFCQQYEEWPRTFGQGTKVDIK

## 5147_N06 (PGT-130) (antibody)
[1]
  IC50: 0.089 µg/mL
[2]
  IC50: 0.009 µg/mL
[3]
  IC50: > 50 µg/mL
[4]
  IC50: 0.061 µg/mL
[5]
  IC50: 1.27 µg/mL
[6]
  IC50: 0.039 µg/mL
[7]
  IC50: 0.004 µg/mL
[8]
  IC50: > 50 µg/mL
[9]
  IC50: 0.037 µg/mL
[10]
  IC50: 21.4 µg/mL
[11]
  IC50: 34.3 µg/mL
[12]
  IC50: 0.004 µg/mL
[13]
  IC50: 1.4 µg/mL
HIV-1 CMU02 Env (HIV-1)
  IC50: > 50 µg/mL
[14]
  IC50: 0.01 µg/mL
[15]
  IC50: > 50 µg/mL
[16]
  IC50: 0.127 µg/mL
[17]
  IC50: 0.151 µg/mL
[18]
  IC50: > 50 µg/mL
[19]
  IC50: > 50 µg/mL
[20]
  IC50: 0.036 µg/mL
[21]
  IC50: 0.008 µg/mL
[22]
  IC50: > 50 µg/mL
[23]
  IC50: > 50 µg/mL
[24]
  IC50: 0.01 µg/mL
[25]
  IC50: > 50 µg/mL
[26]
  IC50: > 50 µg/mL
[27]
  IC50: > 50 µg/mL
[28]
  IC50: > 50 µg/mL
[29]
  IC50: > 50 µg/mL
[30]
  IC50: > 50 µg/mL
[31]
  IC50: 0.308 µg/mL
[32]
  IC50: 0.005 µg/mL
[33]
  IC50: > 50 µg/mL
[34]
  IC50: > 50 µg/mL
[35]
  IC50: > 50 µg/mL
[36]
  IC50: 0.161 µg/mL
[37]
  IC50: 1 µg/mL
[38]
  IC50: 1.53 µg/mL
[39]
  IC50: 0.337 µg/mL
[40]
  IC50: 2.43 µg/mL
[41]
  IC50: 0.006 µg/mL
[42]
  IC50: 0.009 µg/mL
[43]
  IC50: 0.083 µg/mL
[44]
  IC50: > 50 µg/mL
[45]
  IC50: > 50 µg/mL
[46]
  IC50: > 50 µg/mL
[47]
  IC50: 0.041 µg/mL
[48]
  IC50: 0.54 µg/mL
[49]
  IC50: 0.009 µg/mL
[50]
  IC50: > 50 µg/mL
[51]
  IC50: 9.46 µg/mL
[52]
  IC50: > 50 µg/mL
[53]
  IC50: > 50 µg/mL
[54]
  IC50: 0.01 µg/mL
HIV-1 VLGCA1 Env (HIV-1)
  IC50: > 50 µg/mL

## 5114_A19 (PGT-128) (antibody)
[1]
  IC50: 0.003 µg/mL
[2]
  IC50: 0.01 µg/mL
[3]
  IC50: > 50 µg/mL
[4]
  IC50: 0.006 µg/mL
[5]
  IC50: 0.812 µg/mL
[6]
  IC50: 0.005 µg/mL
[7]
  IC50: 0.005 µg/mL
[8]
  IC50: > 50 µg/mL
[9]
  IC50: 0.01 µg/mL
[10]
  IC50: 0.014 µg/mL
[11]
  IC50: > 50 µg/mL
[12]
  IC50: 0.007 µg/mL
[13]
  IC50: 0.011 µg/mL
HIV-1 CMU02 Env (HIV-1)
  IC50: > 50 µg/mL
[14]
  IC50: 0.01 µg/mL
[15]
  IC50: 5.85 µg/mL
[16]
  IC50: 0.042 µg/mL
[17]
  IC50: 0.026 µg/mL
[18]
  IC50: > 50 µg/mL
[19]
  IC50: 10.5 µg/mL
[20]
  IC50: 0.007 µg/mL
[21]
  IC50: 0.081 µg/mL
[22]
  IC50: 14.4 µg/mL
[23]
  IC50: > 50 µg/mL
[24]
  IC50: 0.149 µg/mL
[25]
  IC50: > 50 µg/mL
[26]
  IC50: > 50 µg/mL
[27]
  IC50: > 50 µg/mL
[28]
  IC50: > 50 µg/mL
[29]
  IC50: > 50 µg/mL
[30]
  IC50: > 50 µg/mL
[31]
  IC50: 0.005 µg/mL
[32]
  IC50: 0.005 µg/mL
[33]
  IC50: > 50 µg/mL
[34]
  IC50: 0.025 µg/mL
[35]
  IC50: 0.008 µg/mL
[36]
  IC50: 0.007 µg/mL
[37]
  IC50: 0.069 µg/mL
[38]
  IC50: 0.522 µg/mL
[39]
  IC50: 0.18 µg/mL
[40]
  IC50: > 50 µg/mL
[41]
  IC50: 0.032 µg/mL
[42]
  IC50: 0.044 µg/mL
[43]
  IC50: > 50 µg/mL
[44]
  IC50: > 50 µg/mL
[45]
  IC50: 4.73 µg/mL
[46]
  IC50: 4.99 µg/mL
[47]
  IC50: 34.8 µg/mL
[48]
  IC50: 0.037 µg/mL
[49]
  IC50: 0.009 µg/mL
[50]
  IC50: 0.668 µg/mL
[51]
  IC50: 0.021 µg/mL
[52]
  IC50: 3.93 µg/mL
[53]
  IC50: > 50 µg/mL
[54]
  IC50: 0.004 µg/mL
HIV-1 VLGCA1 Env (HIV-1)
  IC50: 0.838 µg/mL

## 5329_C19 (PGT-136) (antibody)
[1]
  IC50: > 50 µg/mL
[2]
  IC50: > 50 µg/mL
[3]
  IC50: > 50 µg/mL
[4]
  IC50: > 50 µg/mL
[5]
  IC50: > 50 µg/mL
[6]
  IC50: 2.33 µg/mL
[7]
  IC50: > 50 µg/mL
[8]
  IC50: > 50 µg/mL
[9]
  IC50: > 50 µg/mL
[10]
  IC50: > 50 µg/mL
[11]
  IC50: > 50 µg/mL
[12]
  IC50: > 50 µg/mL
[13]
  IC50: > 50 µg/mL
HIV-1 CMU02 Env (HIV-1)
  IC50: > 50 µg/mL
[14]
  IC50: 20.1 µg/mL
[15]
  IC50: > 50 µg/mL
[16]
  IC50: > 50 µg/mL
[17]
  IC50: 3.2 µg/mL
[18]
  IC50: > 50 µg/mL
[19]
  IC50: > 50 µg/mL
[20]
  IC50: 0.006 µg/mL
[21]
  IC50: > 50 µg/mL
[22]
  IC50: 33.7 µg/mL
[23]
  IC50: > 50 µg/mL
[24]
  IC50: > 50 µg/mL
[25]
  IC50: > 50 µg/mL
[26]
  IC50: > 50 µg/mL
[27]
  IC50: > 50 µg/mL
[28]
  IC50: > 50 µg/mL
[29]
  IC50: > 50 µg/mL
[30]
  IC50: > 50 µg/mL
[31]
  IC50: > 50 µg/mL
[32]
  IC50: > 50 µg/mL
[33]
  IC50: > 50 µg/mL
[34]
  IC50: > 50 µg/mL
[35]
  IC50: > 50 µg/mL
[36]
  IC50: > 50 µg/mL
[37]
  IC50: > 50 µg/mL
[38]
  IC50: > 50 µg/mL
[39]
  IC50: > 50 µg/mL
[40]
  IC50: > 50 µg/mL
[41]
  IC50: > 50 µg/mL
[42]
  IC50: > 50 µg/mL
[43]
  IC50: > 50 µg/mL
[44]
  IC50: > 50 µg/mL
[45]
  IC50: > 50 µg/mL
[46]
  IC50: > 50 µg/mL
[47]
  IC50: > 50 µg/mL
[48]
  IC50: > 50 µg/mL
[49]
  IC50: 29.1 µg/mL
[50]
  IC50: > 50 µg/mL
[51]
  IC50: > 50 µg/mL
[52]
  IC50: > 50 µg/mL
[53]
  IC50: > 50 µg/mL
[54]
  IC50: > 50 µg/mL
HIV-1 VLGCA1 Env (HIV-1)
  IC50: > 50 µg/mL
